Measured values as given in EP4527855A2.

How the values were obtained:
[1] = target: 28mer peptide of the CXCR5 antigen; experiment: Antigen ELISA, relative EC50 against the reference; 100 mg/mL formulation, 1 month at +5°C
[2] = target: 28mer peptide of the CXCR5 antigen; experiment: Antigen ELISA, relative EC50 against the reference; 100 mg/mL formulation, 1 month at -20°C
[3] = target: 28mer peptide of the CXCR5 antigen; experiment: Antigen ELISA, relative EC50 against the reference; 100 mg/mL formulation, 3 months at +5°C
[4] = target: 28mer peptide of the CXCR5 antigen; experiment: Antigen ELISA, relative EC50 against the reference; 100 mg/mL formulation, 6 months at +5°C
[5] = target: 28mer peptide of the CXCR5 antigen; experiment: Antigen ELISA, relative EC50 against the reference; 100 mg/mL formulation, 9 months at +5°C
[6] = target: 28mer peptide of the CXCR5 antigen; experiment: Antigen ELISA, relative EC50 against the reference; 100 mg/mL formulation, 3 months at -20°C
[7] = target: 28mer peptide of the CXCR5 antigen; experiment: Antigen ELISA, relative EC50 against the reference; 100 mg/mL formulation, 6 months at -20°C
[8] = target: 28mer peptide of the CXCR5 antigen; experiment: Antigen ELISA, relative EC50 against the reference; 100 mg/mL formulation, 9 months at -20°C
[9] = target: 28mer peptide of the CXCR5 antigen; experiment: Antigen ELISA, relative EC50 against the reference; 100 mg/mL formulation, 12 months at +5°C
[10] = target: 28mer peptide of the CXCR5 antigen; experiment: Antigen ELISA, relative EC50 against the reference; 100 mg/mL formulation, 15 months at +5°C
[11] = target: 28mer peptide of the CXCR5 antigen; experiment: Antigen ELISA, relative EC50 against the reference; 100 mg/mL formulation, 18 months at +5°C
[12] = target: 28mer peptide of the CXCR5 antigen; experiment: Antigen ELISA, relative EC50 against the reference; 100 mg/mL formulation, 12 months at -20°C
[13] = target: 28mer peptide of the CXCR5 antigen; experiment: Antigen ELISA, relative EC50 against the reference; 100 mg/mL formulation, 18 months at -20°C
[14] = target: 28mer peptide of the CXCR5 antigen; experiment: Antigen ELISA, relative EC50 against the reference; 100 mg/mL formulation, +5°C study, initial
[15] = target: 28mer peptide of the CXCR5 antigen; experiment: Antigen ELISA, relative EC50 against the reference; 100 mg/mL formulation, -20°C study, initial
[16] = target: 28mer peptide of the CXCR5 antigen; experiment: Antigen ELISA, relative EC50 against the reference; 100 mg/mL formulation, 1 month at +25°C/60% RH
[17] = target: 28mer peptide of the CXCR5 antigen; experiment: Antigen ELISA, relative EC50 against the reference; 100 mg/mL formulation, 3 months at +25°C/60% RH
[18] = target: 28mer peptide of the CXCR5 antigen; experiment: Antigen ELISA, relative EC50 against the reference; 100 mg/mL formulation, 6 months at +25°C/60% RH
[19] = target: 28mer peptide of the CXCR5 antigen; experiment: Antigen ELISA, relative EC50 against the reference; 100 mg/mL formulation, +25°C/60% RH study, initial
[20] = target: 28mer peptide of the CXCR5 antigen; experiment: Antigen-ELISA on the 28mer CXCR5 peptide, relative EC50 against the standard; DS in PBS, 1 month at 5°C
[21] = target: 28mer peptide of the CXCR5 antigen; experiment: Antigen-ELISA on the 28mer CXCR5 peptide, relative EC50 against the standard; DS in PBS, 1 month at 25°C
[22] = target: 28mer peptide of the CXCR5 antigen; experiment: Antigen-ELISA on the 28mer CXCR5 peptide, relative EC50 against the standard; DS in PBS, 3 months at 5°C
[23] = target: 28mer peptide of the CXCR5 antigen; experiment: Antigen-ELISA on the 28mer CXCR5 peptide, relative EC50 against the standard; DS in PBS, 1 month at -20°C
[24] = target: 28mer peptide of the CXCR5 antigen; experiment: Antigen-ELISA on the 28mer CXCR5 peptide, relative EC50 against the standard; DS in PBS, 3 months at 25°C
[25] = target: 28mer peptide of the CXCR5 antigen; experiment: Antigen-ELISA on the 28mer CXCR5 peptide, relative EC50 against the standard; DS in PBS, 3 months at -20°C
[26] = target: 28mer peptide of the CXCR5 antigen; experiment: Antigen-ELISA on the 28mer CXCR5 peptide, relative EC50 against the current antibody standard; DS in PBS, release

B1: Lead CXCR5 Antibody (humanized IgG4 anti-CXCR5 antibody comprising a heavy chain of SEQ ID NO: 25 and a light chain of SEQ ID NO: 26) (antibody, V domains shown)
VH: QVQLKESGPGLVAPSESLSITCTVSGFSLIDYGVNWIRQPPGKGLEWLGVIWGDGTTYYNPSLKSRLSISKDNSKSQVFLKVTSLTTDDTAMYYCARIVYWGQGTLVTVSA
VL: DIVMTQAAPSVAVTPGASVSISCRSSKSLLHSSGKTYLYWFLQRPGQSPQLLIYRLSSLASGVPDRFSGSGSGTAFTLRISRVEAEDVGVYYCMQHLEYPYTFGGGTKLEIKR
B1 gave a Potency (Antigen ELISA), EC50 value in comparison to reference [1] of 105%, a Potency (Antigen ELISA), EC50 value in comparison to reference [2] of 107% and a Potency (Antigen ELISA), EC50 value in comparison to reference [3] of 95%. It also gave a Potency (Antigen ELISA), EC50 value in comparison to reference [4] of 97%, a Potency (Antigen ELISA), EC50 value in comparison to reference [5] of 92% and a Potency (Antigen ELISA), EC50 value in comparison to reference [6] of 84%. The Potency (Antigen ELISA), EC50 value in comparison to reference [7] was 96%, the Potency (Antigen ELISA), EC50 value in comparison to reference [8] was 101% and the Potency (Antigen ELISA), EC50 value in comparison to reference [9] was 93%. It also gave a Potency (Antigen ELISA), EC50 value in comparison to reference [10] of 114%, a Potency (Antigen ELISA), EC50 value in comparison to reference [11] of 119% and a Potency (Antigen ELISA), EC50 value in comparison to reference [12] of 96%. The Potency (Antigen ELISA), EC50 value in comparison to reference [13] was 127%, the Potency (Antigen ELISA), EC50 value in comparison to reference [14] was 75% and the Potency (Antigen ELISA), EC50 value in comparison to reference [15] was 75%. It also gave a Potency (Antigen ELISA), EC50 value in comparison to reference [16] of 121%, a Potency (Antigen ELISA), EC50 value in comparison to reference [17] of 96% and a Potency (Antigen ELISA), EC50 value in comparison to reference [18] of 104%. The Potency (Antigen ELISA), EC50 value in comparison to reference [19] was 75%, the Ag-ELISA EC50 % (relative to standard) [20] was 83% and the Ag-ELISA EC50 % (relative to standard) [21] was 106%. The Ag-ELISA EC50 % (relative to standard) [22] was 112%, the Ag-ELISA EC50 % (relative to standard) [23] was 132% and the Ag-ELISA EC50 % (relative to standard) [24] was 108%. The Ag-ELISA EC50 % (relative to standard) [25] was 93% and the Ag-ELISA EC50 % (relative to standard) [26] was 100%.
